Test results reported in patent US20190085092A1.

Biological target: STn expressing TAG-72 glycoprotein (human tumor-associated glycoprotein 72) (human) (UniProt Q01973)
Experiment: flow cytometry on LS174T cells, 5 µg 3E8, detected with mouse anti-human IgG-PE

UniProt Q01973, sequence (Q01973 30-937 limits assumed): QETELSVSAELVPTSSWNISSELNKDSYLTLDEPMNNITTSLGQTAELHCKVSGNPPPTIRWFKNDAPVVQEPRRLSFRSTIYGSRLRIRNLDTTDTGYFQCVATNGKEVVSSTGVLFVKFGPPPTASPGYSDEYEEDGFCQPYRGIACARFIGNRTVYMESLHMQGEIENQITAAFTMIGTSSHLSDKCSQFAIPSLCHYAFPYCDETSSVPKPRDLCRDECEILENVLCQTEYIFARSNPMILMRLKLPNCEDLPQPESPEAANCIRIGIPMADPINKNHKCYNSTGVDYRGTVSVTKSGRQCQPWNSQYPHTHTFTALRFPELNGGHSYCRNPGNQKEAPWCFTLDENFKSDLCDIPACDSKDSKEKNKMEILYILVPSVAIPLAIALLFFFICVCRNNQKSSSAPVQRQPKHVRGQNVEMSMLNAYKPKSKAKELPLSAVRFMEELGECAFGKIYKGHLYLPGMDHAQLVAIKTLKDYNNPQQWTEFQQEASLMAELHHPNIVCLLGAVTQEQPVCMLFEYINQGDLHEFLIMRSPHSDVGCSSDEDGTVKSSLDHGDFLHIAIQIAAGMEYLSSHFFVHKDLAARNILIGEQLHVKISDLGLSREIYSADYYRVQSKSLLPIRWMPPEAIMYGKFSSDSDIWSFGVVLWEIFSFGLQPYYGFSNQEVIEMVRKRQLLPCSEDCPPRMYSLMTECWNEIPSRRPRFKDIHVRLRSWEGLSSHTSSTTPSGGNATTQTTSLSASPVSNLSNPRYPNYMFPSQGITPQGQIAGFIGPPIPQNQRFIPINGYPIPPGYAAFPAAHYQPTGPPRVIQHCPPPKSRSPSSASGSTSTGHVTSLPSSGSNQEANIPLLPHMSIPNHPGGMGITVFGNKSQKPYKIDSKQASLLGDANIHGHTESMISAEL

STn specific antibody (3E8) was tested. Which percent of cells stained did it give?
Its percent of cells stained is 98%.
